# T1: IL-18 receptor (IL-18Rα and IL-18Rβ) on HEK-Blue IL-18 cells (UniProt Q13478 19-541; O95256 20-599, limits assumed)
# T1 sequence (looked up) 1: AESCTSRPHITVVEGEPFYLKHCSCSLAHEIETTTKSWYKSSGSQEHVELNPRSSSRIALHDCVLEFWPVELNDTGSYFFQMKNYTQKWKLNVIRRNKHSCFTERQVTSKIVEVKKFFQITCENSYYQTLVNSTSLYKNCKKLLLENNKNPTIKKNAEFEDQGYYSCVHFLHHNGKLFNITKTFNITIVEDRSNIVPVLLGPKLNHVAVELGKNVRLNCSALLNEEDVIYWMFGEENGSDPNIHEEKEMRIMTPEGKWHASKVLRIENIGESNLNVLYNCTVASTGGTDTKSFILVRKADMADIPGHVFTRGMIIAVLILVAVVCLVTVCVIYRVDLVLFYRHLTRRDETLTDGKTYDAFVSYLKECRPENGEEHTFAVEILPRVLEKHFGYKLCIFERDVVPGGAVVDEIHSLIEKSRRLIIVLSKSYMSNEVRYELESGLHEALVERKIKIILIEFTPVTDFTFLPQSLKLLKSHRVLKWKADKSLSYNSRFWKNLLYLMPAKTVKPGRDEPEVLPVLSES
# T1 sequence (looked up) 2: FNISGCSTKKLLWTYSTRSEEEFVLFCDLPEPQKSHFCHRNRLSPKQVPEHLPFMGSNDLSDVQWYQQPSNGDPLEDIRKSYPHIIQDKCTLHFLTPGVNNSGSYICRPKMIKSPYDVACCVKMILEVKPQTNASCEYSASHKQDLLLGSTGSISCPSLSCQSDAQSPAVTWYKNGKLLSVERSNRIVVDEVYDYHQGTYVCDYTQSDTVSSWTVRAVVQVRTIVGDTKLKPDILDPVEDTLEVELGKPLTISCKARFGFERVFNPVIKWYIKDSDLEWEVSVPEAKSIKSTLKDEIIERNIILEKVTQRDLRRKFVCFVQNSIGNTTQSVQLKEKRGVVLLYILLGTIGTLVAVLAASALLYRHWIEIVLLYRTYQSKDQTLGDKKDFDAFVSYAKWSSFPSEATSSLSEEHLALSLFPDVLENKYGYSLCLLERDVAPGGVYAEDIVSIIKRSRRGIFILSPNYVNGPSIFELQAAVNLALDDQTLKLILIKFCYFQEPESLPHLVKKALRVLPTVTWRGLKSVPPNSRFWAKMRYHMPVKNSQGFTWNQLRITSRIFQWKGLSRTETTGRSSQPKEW
# T2: IL-18 receptor (IL-18Rα/IL-18Rβ) on human PBMCs (human, UniProt Q13478 19-541; O95256 20-599)
# T2 sequence (looked up) 1: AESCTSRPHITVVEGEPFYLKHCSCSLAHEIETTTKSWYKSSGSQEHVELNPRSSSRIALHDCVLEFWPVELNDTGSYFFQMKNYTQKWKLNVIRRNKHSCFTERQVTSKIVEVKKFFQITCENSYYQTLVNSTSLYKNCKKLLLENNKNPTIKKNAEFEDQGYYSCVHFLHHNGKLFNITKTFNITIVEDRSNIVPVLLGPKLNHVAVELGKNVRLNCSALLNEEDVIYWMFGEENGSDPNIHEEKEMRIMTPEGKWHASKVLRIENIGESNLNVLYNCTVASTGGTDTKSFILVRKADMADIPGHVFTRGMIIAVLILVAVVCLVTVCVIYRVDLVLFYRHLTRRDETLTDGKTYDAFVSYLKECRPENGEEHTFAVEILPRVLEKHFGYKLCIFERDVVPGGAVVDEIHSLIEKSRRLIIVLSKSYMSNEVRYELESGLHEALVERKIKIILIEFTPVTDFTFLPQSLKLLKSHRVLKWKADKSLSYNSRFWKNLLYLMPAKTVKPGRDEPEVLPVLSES
# T2 sequence (looked up) 2: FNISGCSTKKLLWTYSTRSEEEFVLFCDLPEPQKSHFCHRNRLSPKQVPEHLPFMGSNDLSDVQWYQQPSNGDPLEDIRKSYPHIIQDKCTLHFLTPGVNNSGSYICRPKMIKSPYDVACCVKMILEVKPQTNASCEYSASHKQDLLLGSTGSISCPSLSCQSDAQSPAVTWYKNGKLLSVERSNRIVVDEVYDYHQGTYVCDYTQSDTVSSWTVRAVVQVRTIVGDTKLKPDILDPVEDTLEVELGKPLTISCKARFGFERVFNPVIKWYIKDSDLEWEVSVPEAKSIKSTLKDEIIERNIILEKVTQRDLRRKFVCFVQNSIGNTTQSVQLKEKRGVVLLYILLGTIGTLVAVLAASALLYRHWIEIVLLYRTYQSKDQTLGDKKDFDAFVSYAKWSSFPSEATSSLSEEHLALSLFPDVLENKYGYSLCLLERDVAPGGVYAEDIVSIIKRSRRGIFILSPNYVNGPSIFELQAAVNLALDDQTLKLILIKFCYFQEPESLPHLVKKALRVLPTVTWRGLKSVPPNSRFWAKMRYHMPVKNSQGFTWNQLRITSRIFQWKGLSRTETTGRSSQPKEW
# B1: DGL620 (bispecific antibody)
# chain 1: EVQLLESGGGLVQPGGSLRLSCAASGRTFSKHAMGWFRQAPGKGLEFVSAIDWSGGSTYYADSVKGRFTISRDNSKNTVYLQMNSLRAEDTAVYYCAADSYTDYAQLWLPELESEYDYWGQGTLVTVSSCPPCPAPEAAGAPSVFLFPPKPKDTLYITREPEVTCVVVDVSHEDPEVKFNWYVDGVEVHNAKTKPREEQYNSTYRVVSVLTVLHQDWLNGKEYKCKVSNKALPAPIEKTISKAKGQPREPQVCTLPPSRDELTKNQVSLSCAVKGFYPSDIAVEWESNGQPENNYKTTPPVLDSDGSFFLVSKLTVDKSRWQQGNVFSCSVMHEALHNHYTQKSLSLSPG
# chain 2: QLQLLESGGGLVQAGGSLRLSCAASRSITFSHNVMGWYRQAPGKGRELVSSIGSGGSTNYVDSVKGRFTISRDNSKKTLYLQMNSLRAEDTAVYYCGVVVGVYRGSLGQGTLVTVSSCPPCPAPEAAGAPSVFLFPPKPKDTLYITREPEVTCVVVDVSHEDPEVKFNWYVDGVEVHNAKTKPREEQYNSTYRVVSVLTVLHQDWLNGKEYKCKVSNKALPAPIEKTISKAKGQPREPQVYTLPPCRDELTKNQVSLWCLVKGFYPSDIAVEWESNGQPENNYKTTPPVLDSDGSFFLYSKLTVDKSRWQQGNVFSCSVMHEALHNHYTQKSLSLSPG
# B2: DGL346 (bispecific antibody)
# chain 1: EVQLVESGGGLIQPGGSLRLSCAASGSISSRDTMGWYRQAPGKGREMVSVISSSGNTNYADSVLGRFTISRDNAKNTVYLQMNALRAEDTAVYKCYAHRTYGVDYWGQGTLVTVSSGGGSQVQLVESGGGLVQPGGSLRLSCAASGRTFSSYTMGWFRQAPGKGREFVSAISWSAGRTYYADSVKGRFTISRDNAKNTVYLQMNALRAEDTAVYYCAAEEAPDWAPIDCSGYGCLSLYDYWGQGTLVTVSDKTHTCPPCPAPEAAGAPSVFLFPPKPKDTLYITREPEVTCVVVDVSHEDPEVKFNWYVDGVEVHNAKTKPREEQYNSTYRVVSVLTVLHQDWLNGKEYKCKVSNKALPAPIEKTISKAKGQPREPQVCTLPPSRDELTKNQVSLSCAVKGFYPSDIAVEWESNGQPENNYKTTPPVLDSDGSFFLVSKLTVDKSRWQQGNVFSCSVMHEALHNHYTQKSLSLSPG
# chain 2: DKTHTCPPCPAPEAAGAPSVFLFPPKPKDTLYITREPEVTCVVVDVSHEDPEVKFNWYVDGVEVHNAKTKPREEQYNSTYRVVSVLTVLHQDWLNGKEYKCKVSNKALPAPIEKTISKAKGQPREPQVYTLPPCRDELTKNQVSLWCLVKGFYPSDIAVEWESNGQPENNYKTTPPVLDSDGSFFLYSKLTVDKSRWQQGNVFSCSVMHEALHNHYTQKSLSLSPG
# B3: DGL336 (bispecific antibody, V domains shown)
# V domain 1: EVQLLESGGGLVQPGGSLRLSCAASGRTFSKHAMGWFRQAPGKGLEFVSAIDWSGGSTYYADSVKGRFTISRDNSKNTVYLQMNSLRAEDTAVYYCAADSYTDYAQLWLPELESEYDYWGQGTLVTVSS
# V domain 2: EVQLVESGGGLIQPGGSLRLSCAASGSISSRDTMGWYRQAPGKGREMVSVISSSGNTNYADSVLGRFTISRDNAKNTVYLQMNALRAEDTAVYKCYAHRTYGVDYWGQGTLVTVSS
# How the values were obtained:
# Experiment in all cases: cell-based or functional assay
# [1] = target: T1, IL-18 receptor (IL-18Rα and IL-18Rβ) on …
# [2] = target: T2, IL-18 receptor (IL-18Rα/IL-18Rβ) on …
# [3] = target: T1, IL-18 receptor (IL-18Rα and IL-18Rβ) on …; remark: listed apart in the source
Binder,HEK-Blue: Abs 405 at 100 nM [1] [absorbance],HEK-Blue: Fold over background [1] [fold],"Calculated maximum induction of IFN-γ after 24 hours, donor 1 [2]","Calculated maximum induction of IFN-γ after 24 hours, donor 2 [2]","Calculated maximum induction of IFN-γ after 24 hours, donor 3 [2]","Calculated maximum induction of IFN-γ after 24 hours, donor 4 [2]","Calculated maximum induction of IFN-γ after 24 hours, donor 5 [2]","Calculated maximum induction of IFN-γ after 24 hours, donor 6 [2]",EC50 (read off the curve) [3] [nM]
B1,1.87,10.1,16000,1300,22000,19000,15000,2400,~1
B2,1.34,7.2,16000,1700,22000,17000,15000,3000,
B3,0.9,4.9,13000,620,17000,9300,1500,1300,

# From patent US20250179197A1 (DIAGONAL THERAPEUTICS, published 2025)
